For the test, the target named is Orai1β-eGFP (UniProt Q96D31). Nature of the test: co-IP; Orai1-KO MCF7 cells co-transfected with an Orai1 variant and mCherry-SPCA2; lysis in 1% IGEPAL CA-630 buffer pH 8; immunoprecipitation with anti-Orai1 antibody and protein A-agarose at 4 °C overnight; Western blot with anti-mCherry; signal normalised to input and to immunoprecipitated Orai1.

The source of these data is paper PMC11736007.

UniProt Q96D31, sequence (Q96D31 64-301): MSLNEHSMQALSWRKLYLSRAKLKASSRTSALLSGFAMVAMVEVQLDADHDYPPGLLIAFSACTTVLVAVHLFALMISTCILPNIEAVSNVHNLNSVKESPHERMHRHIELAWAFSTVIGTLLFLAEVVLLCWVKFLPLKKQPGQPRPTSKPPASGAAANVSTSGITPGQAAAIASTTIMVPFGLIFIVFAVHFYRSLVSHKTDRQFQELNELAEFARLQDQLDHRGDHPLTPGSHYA

B1: mCherry-SPCA2 (natural protein)
chain: MVEGRVSEFLKKLGFSGGGRQYQALEKDEEEALIDEQSELKAIEKEKKVTALPPKEACKCQKEDLARAFCVDLHTGLSEFSVTQRRLAHGWNEFVADNSEPVWKKYLDQFKNPLILLLLGSALVSVLTKEYEDAVSIATAVLVVVTVAFIQEYRSEKSLEELTKLVPPECNCLREGKLQHLLARELVPGDVVSLSIGDRIPADIRLTEVTDLLVDESSFTGEAEPCSKTDSPLTGGGDLTTLSNIVFMGTLVQYGRGQGVVIGTGESSQFGEVFKMMQAEETPKTPLQKSMDRLGKQLTLFSFGIIGLIMLIGWSQGKQLLSMFTIGVSLAVAAIPEGLPIVVMVTLVLGVLRMAKKRVIVKKLPIVETLGCCSVLCSDKTGTLTANEMTVTQLVTSDGLRAEVSGVGYDGQGTVCLLPSKEVIKEFSNVSVGKLVEAGCVANNAVIRKNAVMGQPTEGALMALAMKMDLSDIKNSYIRKKEIPFSSEQKWMAVKCSLKTEDQEDIYFMKGALEEVIRYCTMYNNGGIPLPLTPQQRSFCLQEEKRMGSLGLRVLALASGPELGRLTFLGLVGIIDPPRVGVKEAVQVLSESGVSVKMITGDALETALAIGRNIGLCNGKLQAMSGEEVDSVEKGELADRVGKVSVFFRTSPKHKLKIIKALQESGAIVAMTGDGVNDAVALKSADIGIAMGQTGTDVSKEAANMILVDDDFSAIMNAVEEGKGIFYNIKNFVRFQLSTSISALSLITLSTVFNLPSPLNAMQILWINIIMDGPPAQSLGVEPVDKDAFRQPPRSVRDTILSRALILKILMSAAIIISGTLFIFWKEMPEDRASTPRTTTMTFTCFVFFDLFNALTCRSQTKLIFEIGFLRNHMFLYSVLGSILGQLAVIYIPPLQRVFQTENLGALDLLFLTGLASSVFILSELLKLCEKYCCSPKRVQMHPEDV
The molecule B1 displayed a percent decrease of co-precipitated SPCA2 against Orai1α of 63%.
